# T1: PpPutA45 (Pseudomonas putida, UniProt Q9R9T7 1-45)
# T1 chain: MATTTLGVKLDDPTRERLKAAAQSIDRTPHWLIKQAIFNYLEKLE
# Molecular target: T1, PpPutA45
# Assay: EMSA
binder,measurement,value
O2-12 (dsDNA) DNA 1: GCGGTTGCACCT DNA 2: AGGTGCAACCGC,binding result,no binding
